Results on 40 sequences are retold here after the nanobody polyreactivity screen of Harvey et al. (2022).

This series is described as follows: yeast display, Sf9 membrane polyspecificity reagent, FACS + sequencing; frameworks hold sequencing errors. Summed up: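 A synthetic nanobody library was expressed on Saccharomyces cerevisiae BJ5465 by galactose induction for 36–48 hours. The library was stained for 1 hour at 4 °C with 10% biotinylated, detergent-solubilized Sf9 membrane reagent and enriched with streptavidin microbeads before FACS. Low and high (top ~1%) gates were set on anti-HA fluorescence for expression and streptavidin fluorescence for reagent binding, and each polyreactivity label reflects the gate of origin.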
As to “QVQLVESGGGLVQAGGSLRLSCAASGSIFSSYAMGWYRQAPGKERELVAVINSGGSTNYADSVKGRFTISRDNAKNSVYVQMKSLKPEDTAVYYCNAYGGTFHNTAAEFDYWRQGTQVTVSS”, the “polyreactivity (PSR sort gate)” value is reported as “low polyreactivity”.

“QVQLVESGGGLVQAGGSLRLSCAASGSIFSSYGMGWYRQAPGKERELVATITGSGGSTYYSDSVKGRLTISRVNAKNTVYLQMNSLKPEDTAVYYCATRLGWFVKYYTGRYYYWGQGTQVTVSS”: the “polyreactivity (PSR sort gate)” value is on record as “high polyreactivity”.

With “QVQLVESGGGLVQAGGSLRLSCAASGSIFSTNAIGGYRQAPGTQRELVAVITGIGGITYYADSVKGRFTISRDNAKKTVYLQRNSLKPDDTAVYYCADDPISEFSWGVKDRYDYWGQGTQVTVSS”, the “polyreactivity (PSR sort gate)” value is given as “low polyreactivity”.

Take “QVQLVESGGGLVQAGGSLRLSCAASGSIFSTNDRGWYRQAPGKERELVAAISVSGGSTYYADSVKGRFTISRDNAKNTVYLQMNSLKPEDTAVYYCNADYTRGTMYYWGQGTQVTVSS”: the “polyreactivity (PSR sort gate)” value is “low polyreactivity”.

With “QVQLVESGGGLVQAGGSLRLSCAASGSIFSTYAIVWYRQAPGKERELVAAISVSGGRTYYADSVKGRFTISRDNAKYTVYLQMNSLKPEDTAVYYCNAYPFWRDYDYWGQGTQVTVSS”, the “polyreactivity (PSR sort gate)” value is on record as “high polyreactivity”.

For the sequence “QVQLVESGGGLVQAGGSLRLSCAASGSIFSTYAMGWYRQAPVKERELVAAINSGDSTSYADSVKGRFTISRDNAKNTVYLQMNSLKPEDTAVYYCAAKTGGYWYLRRTARYESWGQGTQVTVSS”, the “polyreactivity (PSR sort gate)” value is “low polyreactivity”.

As for “QVQLVESGGGLVQAGGSLRLSCAASGSIFSTYTMGWYRQAPGTERELVAAITRSGGSTYNADSVKGRFTISRDNAKNTVYLQMNSLKPEDTAVYYCAARWKFPSSFYYWGQGTQVTVSS”, the “polyreactivity (PSR sort gate)” value is “high polyreactivity”.

As for “QVQLVESGGGLVQAGGSLRLSCAASGSIFSVNAMGWYRQAPGTEREFVASINFRGGRTYYADSVKGRFRISRDNAKNTVYLQMNCLKPEDTADYYCAAVITLTDTGYGPSFRVFYWGQGTQVTVSS”, the “polyreactivity (PSR sort gate)” value is recorded as “high polyreactivity”.

On to “QVQLVESGGGLVQAGGSLRLSCAASGSIFSVNTMGWYRQAPGKERELVAAISGSGGSTYYADSVKGRFTISRDNATNPVYLQMNSLKPEETAVYYCAKVYRRGAGYNYWGQGTQVTVSS”, for which the “polyreactivity (PSR sort gate)” value is “high polyreactivity”.

With “QVQLVESGGGLVQAGGSLRLSCAASGSIFSVNTMGWYRQAPGKQRELVAAISESGDGTYYADSVKGRFTISRDNAKNTVYLQMNSLKPEDTAVYYCNADRQKGGGYYPHEFDYWGQGTQVTVSS”, the “polyreactivity (PSR sort gate)” value was “low polyreactivity”.

Turning to “QVQLVESGGGLVQAGGSLRLSCAASGSIFSVYAMGWYRQAPGKERELVAAITSGTSTYADSVKGRFTISRDNAKNTVYLQMNSLKPEDTAVYYCAAESGSPGYYYWGQGTQVTVSS”, the “polyreactivity (PSR sort gate)” value is given as “low polyreactivity”.

As to “QVQLVESGGGLVQAGGSLRLSCAASGSIFSVYDMGWYRQAPGKERELVAAISRSGGSTYYADSVKGRFTISRDNAKNTVYLQRNSLKPEDTAVYYCNAVRRTGGHGDYWGQGTQVTVSS”, the “polyreactivity (PSR sort gate)” value is given as “high polyreactivity”.

Take “QVQLVESGGGLVQAGGSLRLSCAASGSIFSWNAMGWYRPAPGKEREFVAAISYGSTSTTYADSVKGRFTISRDNAKNTVYLQMNSLKPEDTAVYYCAAVPRRSGHQRWGATYYYWGQGTQVTVSS”: the “polyreactivity (PSR sort gate)” value is reported as “high polyreactivity”.

Regarding “QVQLVESGGGLVQAGGSLRLSCAASGSIFSWNAMGWYRQAPGKERELVAAISTRGSSTYYADSVKGRFTISRDNAKNTVYLQMNSLKPEDTAVYYCNAARTFPFYWGLRGSQRYDYWGQGTQVTVSS”, the “polyreactivity (PSR sort gate)” value is reported as “high polyreactivity”.

Regarding “QVQLVESGGGLVQAGGSLRLSCAASGSIFSYNAMGGYRQAPGKERELVAGITSGASTNYADSVKGRFTISRDNAKNTVYLQMNSLKPEDTAVYYCNADDIFRPRDDLYDYWGQGTQVTVSS”, the “polyreactivity (PSR sort gate)” value is “low polyreactivity”.

As to “QVQLVESGGGLVQAGGSLRLSCAASGSIFSYNAMGWYRQAPGKEREFVAAITSSGTRTYYADSVKGRFTISRDNAKNTVYLQMNSLKPEDTAVYYCAAKPSRYGIGFYWGQGTQVTVSS”, the “polyreactivity (PSR sort gate)” value was “high polyreactivity”.

“QVQLVESGGGLVQAGGSLRLSCAASGSIFSYNAMGWYRQAPGKERELVAAISWSGGSTYYADSVKGRFTISRDNAKNTVYLQMNSLKPEDTAVYYCNAYRYRQSSSDKYGYWGQGTQVTVSS”: the “polyreactivity (PSR sort gate)” value is given as “high polyreactivity”.

For the sequence “QVQLVESGGGLVQAGGSLRLSCAASGSIFSYNAMGWYRQAPGKERELVAAITWSGGSTYYADSVKGRFTISRDNAKNTVYLQMNSLKPEDTAVYYCAAVYDDYSTSVGYSPEYDYWGQGTQVTESS”, the “polyreactivity (PSR sort gate)” value is given as “high polyreactivity”.

Take “QVQLVESGGGLVQAGGSLRLSCAASGSIFSYNGMGWYRQAPGKERELVATISASSVTTYYADSVKGRFTFSRDNAMNTVYLQMNSLKPEDTAVYYCARDAYSVYYYVFLHWEYDYWGQGTQVTVSS”: the “polyreactivity (PSR sort gate)” value was “high polyreactivity”.

On to “QVQLVESGGGLVQAGGSLRLSCAASGSIFSYYAMGWYRQAPAKERELVAAISQNACSTYYADSVKGRFTISRDNAKNTVYLQMNSLKPEDTAVYYCNAYSVYVRGEYWGQGTQVNVSS”, for which the “polyreactivity (PSR sort gate)” value was “high polyreactivity”.

Take “QVQLVESGGGLVQAGGSLRLSCAASGSIFSYYAMGWYRQAPGKERELVAAITTSGGSTYYADSVKGRVTISRDNAKNTVYLQMNSLKPEDTAVYYCAAETAWYITTGYDYWGQGTQVTVSS”: the “polyreactivity (PSR sort gate)” value is reported as “low polyreactivity”.

In the case of “QVQLVESGGGLVQAGGSLRLSCAASGSIFSYYAMGWYRQAPGKERELVAAITVRGGSTYYADSVKGRFTISRDNAKNTVYFQMNSLKPEDTAVYYCAADWLDESFSYGPYYYWGQGTQVTVSS”, the “polyreactivity (PSR sort gate)” value is reported as “low polyreactivity”.

Regarding “QVQLVESGGGLVQAGGSLRLSCAASGSIFSYYAMGWYRQAPGKERELVATITSSGSTYADSVKGRFTISRDNAKNTVYLQMNSLKPEDTAVYYCNADSGYSEYWGVDVAYDYWGQGTQVTVSS”, the “polyreactivity (PSR sort gate)” value was “low polyreactivity”.

As for “QVQLVESGGGLVQAGGSLRLSCAASGSIFSYYAMGWYRQAPGKERVLVAAIRRGGSTNYADSVKGRFTISRDNAKNTVYLQLNSLKPEDTAVYYCAASLGWRFYYWGQGTQVTVSS”, the “polyreactivity (PSR sort gate)” value is “high polyreactivity”.

As for “QVQLVESGGGLVQAGGSLRLSCAASGSIFSYYDMGWYRQAPGKERELVAAIRWSGGITYADSVKGRFTISRDNAKNTVYLEMNSLKPEDTAVYYCAADQYYRSDYYYWGQGTQVTVSS”, the “polyreactivity (PSR sort gate)” value is on record as “low polyreactivity”.

In the case of “QVQLVESGGGLVQAGGSLRLSCAASGSIFSYYTIGWYRKAPGKERELVAAISFSGTSTYYADSVKGRFTISRDNDKNTVYLQMNSLKPEDTAVYFCAKRALYYPTYPKYDTYNRYYWGQGTQGTVSS”, the “polyreactivity (PSR sort gate)” value is on record as “high polyreactivity”.

Take “QVQLVESGGGLVQAGGSLRLSCAASGSIFSYYTMGWYRQAPGKERELVAAITKSGGSTYYADSVKGRFTISRDNAKNTVYLQMNSLKPEDTAVYYCAASYGGYPKGNYWGQGTQVTVSS”: the “polyreactivity (PSR sort gate)” value is “high polyreactivity”.

For the sequence “QVQLVESGGGLVQAGGSLRLSCAASGSIFTAYAMGWYRQAPGKEMELVAAITYNGGSTYYADSVKGRFTISRDNAKNTVYLQMNSLKPEDTAVYYCAARYWFYYDLYDYWGQGTQVTVSS”, the “polyreactivity (PSR sort gate)” value was “low polyreactivity”.

For the sequence “QVQLVESGGGLVQAGGSLRLSCAASGSIFTDNVMGWYRQAPGKERELVAAITYSAASTYYADSVKGRFTISRDNAKNTVYLQMNSLKPEDTAVYYCNARIIYRKWLFRSGTFNYWGQGTQVTVSS”, the “polyreactivity (PSR sort gate)” value is “low polyreactivity”.

Turning to “QVQLVESGGGLVQAGGSLRLSCAASGSIFTDYAMGWYRQAPGKERELVAAITSSGGSTYYADSVKGRFTISRDNAKNTVYLQMNSLKPEDTAVYYCDADRITIYDYWGQGTQVTVSS”, the “polyreactivity (PSR sort gate)” value was “low polyreactivity”.

Regarding “QVQLVESGGGLVQAGGSLRLSCAASGSIFTDYTMGWYRQAPGKERELVAAISWIGDSTDYADSVKGRFTISRDNAKNTVYLQMNSLNPEDTAVYYCAKSRAGRYNDYDYWGQGTQVTVSS”, the “polyreactivity (PSR sort gate)” value is recorded as “low polyreactivity”.

“QVQLVESGGGLVQAGGSLRLSCAASGSIFTFYAMGWYRPAPGKERELVAAITRSGGSTYYADSVKGRFTISRDNAKNTVYLQMNSLKPEDTAVYYCAKDPSSYVTYRYYYWGQGTEVTVSS”: the “polyreactivity (PSR sort gate)” value was “low polyreactivity”.

With “QVQLVESGGGLVQAGGSLRLSCAASGSIFTFYAMGWYRQAPGKERELVAAISYGGGITYYADSVKGRFTISRDNAKISVYLQMNSLIPEDSAVYYCAADDGYYNLYFDYDFWGQGTQLTVSS”, the “polyreactivity (PSR sort gate)” value is given as “low polyreactivity”.

“QVQLVESGGGLVQAGGSLRLSCAASGSIFTFYAMGWYRQAPGKERELVASITSGAGITYYADSVKGRFTISRDNAKNTVYLQMNSLKPEDTAVYYCAADWSGDFFTDGYWGQGTQVTVSS”: the “polyreactivity (PSR sort gate)” value was “low polyreactivity”.

As to “QVQLVESGGGLVQAGGSLRLSCAASGSIFTFYAMGWYRQAPVKERELVAGIRWRGGTSTFYADSVKGRFTISRDNAKNTVYLQMNSLKPEDTAVYYCAAKRRTGGNGYWGQGTQVTVSS”, the “polyreactivity (PSR sort gate)” value is listed as “high polyreactivity”.

Regarding “QVQLVESGGGLVQAGGSLRLSCAASGSIFTGNTMGWYRQAPGNERELVAAMSRRGGRTYYADSVKGRFTISRDNAKNTVYLQMNSLKPEDPAVYYCAADGWYWTYIVEYWGQGTQVTVSS”, the “polyreactivity (PSR sort gate)” value is given as “high polyreactivity”.

Turning to “QVQLVESGGGLVQAGGSLRLSCAASGSIFTHNAMGCYRQAPGKERELVAAMSSGGSTNDADSVKGRFTISRDNAKNTVYLKMNSLTPEDTAVYYCAKSIDGWYWRRRRYDYWGQGTQVTVSS”, the “polyreactivity (PSR sort gate)” value is listed as “low polyreactivity”.

As to “QVQLVESGGGLVQAGGSLRLSCAASGSIFTHYAMGWYRQAPGKERELVAGITSSGGSTYADSVKGRFTISRDNAKNTVYLQMNSLKPEDTAVYYCNADNATYFVYEFNYWGQGTQVTVSS”, the “polyreactivity (PSR sort gate)” value is on record as “low polyreactivity”.

For “QVQLVESGGGLVQAGGSLRLSCAASGSIFTINAMGWYRQAPGIERALVAAIRSGGGTNYADSVKGRFTISRDNAKNTVYFQMNSLKPEDTAVYYCAADLWAGKYGEYDYWGQGTQVTVSS”, the “polyreactivity (PSR sort gate)” value is “high polyreactivity”.

Turning to “QVQLVESGGGLVQAGGSLRLSCAASGSIFTINAMGWYSQAPGKERELVAALTSGGSTSYADSVKGRFTISRDIAKNTVYLQMNSLKPEDTAVYYCAADAKRFYPYRWRLYYWGQGTQVTVSS”, the “polyreactivity (PSR sort gate)” value is “high polyreactivity”.
